# Data published in patent US20230272086A1 (CHIA TAI TIANQING PHARMACEUTICAL GROUP, published 2023).
# Where two headings read alike, the source gives them in different places.
# T1: human ST2 (hST2, Interleukin-1 receptor-like 1 isoform A) on cells (human, UniProt Q01638 19-556)
# T1 sequence: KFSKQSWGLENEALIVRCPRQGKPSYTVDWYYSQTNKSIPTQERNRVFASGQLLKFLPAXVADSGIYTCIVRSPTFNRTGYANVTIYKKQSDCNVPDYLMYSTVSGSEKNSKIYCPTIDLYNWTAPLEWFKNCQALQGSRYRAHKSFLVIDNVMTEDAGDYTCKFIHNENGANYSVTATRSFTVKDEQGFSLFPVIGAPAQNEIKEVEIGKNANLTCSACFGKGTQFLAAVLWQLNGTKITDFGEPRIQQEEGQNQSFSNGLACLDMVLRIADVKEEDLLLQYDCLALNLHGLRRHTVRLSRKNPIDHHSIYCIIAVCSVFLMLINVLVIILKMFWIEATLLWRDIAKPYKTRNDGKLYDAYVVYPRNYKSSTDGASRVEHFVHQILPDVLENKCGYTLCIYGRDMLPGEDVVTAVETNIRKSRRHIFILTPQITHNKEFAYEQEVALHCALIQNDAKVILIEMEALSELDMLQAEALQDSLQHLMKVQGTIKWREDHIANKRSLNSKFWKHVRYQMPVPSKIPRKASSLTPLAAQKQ
# T2: cynomolgus monkey ST2 antigen (Cyno-ST2-his, Sino biological, 90915-C08H) (cynomolgus monkey, UniProt Q01638 19-328 (human entry))
# T2 construct: Bought protein; not shown: his tag
# T2 chain: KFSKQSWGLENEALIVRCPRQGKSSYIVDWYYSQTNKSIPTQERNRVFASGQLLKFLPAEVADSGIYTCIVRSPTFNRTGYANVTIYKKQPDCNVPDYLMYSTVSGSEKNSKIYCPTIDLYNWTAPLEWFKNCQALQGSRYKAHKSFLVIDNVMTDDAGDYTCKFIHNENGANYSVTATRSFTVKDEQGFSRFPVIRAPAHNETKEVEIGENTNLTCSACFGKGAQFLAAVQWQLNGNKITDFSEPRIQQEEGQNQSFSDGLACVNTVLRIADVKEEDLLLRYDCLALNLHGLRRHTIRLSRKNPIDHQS
# Columns and labels:
# [1] = target: T1, human ST2 (hST2, Interleukin-1 …); experiment: cell-based or functional assay
# [2] = target: T1, human ST2 (hST2, Interleukin-1 …); experiment: cell-based or functional assay; remark: listed apart in the source
# [3] = target: T1, human ST2 (hST2, Interleukin-1 …); experiment: flow cytometry on HEK293T-hST2-NFκB-Luciferase cells
# Method: 3 × 10⁵ HEK293T-hST2-NFκB-Luciferase or HEK293T-Cyno-ST2-NFκB-Luciferase cells were added to a 96-well culture plate. Serially diluted anti-ST2 antibodies (serially diluted 4-fold from an initial concentration of 667 nM to 8 concentrations in binding assays with the HEK293T-hST2-NFκB-Luciferase cells; serially diluted 4-fold from an initial concentration of 400 nM to 8 concentrations in binding assays with the HEK293T-Cyno-ST2-NFκB-Luciferase cells) were added to the cell suspensions. After the plate was incubated at room temperature for 60 min, the cells were washed 3 times with PBS. […] The cells were washed 3 times with PBS and resuspended in 100 µ1L of PBS, and then the fluorescence signals were analyzed and detected using a flow cytometer (BD, Accuri C6). The binding capacity of the anti-ST2 antibodies to hST2 and cyno-ST2 on the cell line surfaces was measured in terms of the mean fluorescence intensity (MFI) of staining. The data were analyzed using GraphPad Prism5, and the EC₅₀ values were calculated. The EC₅₀ values for the binding of the anti-ST2 chimeric antibodies to hST2 and Cyno-ST2 at the cellular level are shown in Table 8 and FIGS. 7-8.
# The humanized antibodies hz31C81-1.1 (the amino acid sequence of the heavy chain set forth in SEQ ID NO: 75 and the amino acid sequence of the light chain set forth in SEQ ID NO: 81) and hz31C8-1.2 (the amino acid sequence of the heavy chain set forth in SEQ ID NO: 77 and the amino acid sequence of the light chain set forth in SEQ ID NO: 81) were subjected to affinity, binding, blocking and cell function analyses using the methods described in Example 4, Example 5, Example 6, Example 7, Example 8, Example 9 and Example 10. In the present disclosure, “hz” and “xi” denote humanized antibodies and chimeric antibodies, respectively; for example, “hz31C81-1.1” and “hz31C81-1.2” represent humanized 31C81-1.1 and 31C81-1.2 antibodies, and “xi31C8” represents a chimeric 31C8 antibody.
# [4] = target: T2, cynomolgus monkey ST2 antigen …; experiment: ELISA, plate coated with Cyno-ST2-his
# Method: ST2 binding screening and analysis of antibodies were performed by ELISA using hST2-ECD-mFc (for assays of chimeric and humanized antibodies), hST2-ECD-hFc protein (for assays of hybridoma antibodies) and Cyno-ST2-his (Sino biological, 90915-C08H) as antigens. A high-adsorption 96-well plate (Costar, 9018) was coated with 2 µg/mL hST2-ECD-mFc or Cyno-ST2-his antigen at 100 µL/well and incubated overnight at 4° C. After the antigen not adsorbed was well washed off, the non-specific binding sites were blocked with a blocking buffer (PBS containing 2% bovine serum albumin). After the plate was washed three times with a washing buffer (PBS containing 0.05% (v/v) Tween 20), the anti-ST2 antibodies (serially diluted 3-fold from an initial concentration of 10 nM to 8 concentrations: 3.333 nM, 1.111 nM, 0.370 nM, 0.123 nM, 0.041 nM, 0.014 nM, 0.005 nM, and 0.002 nM) were added at 100 µL/well, and the plate was incubated at room temperature for 1 h. After the plate was washed with the washing buffer, a horseradish peroxidase (HRP)-conjugated secondary antibody was added, and the plate was incubated for another 60 min. After the plate was washed with the washing buffer, the substrate TMB solution (Thermo, 00-4201-56) was added at 100 µL/well, and the plate was incubated at room temperature for 2 min. A stop solution (2 N H₂SO₄) was added at 100 µL/well to terminate the reactions. Colorimetric signals were generated and read at 450 nm using a microplate reader (PE, Envision). The data were analyzed using GraphPad Prism5, and the EC₅₀ values were calculated.
# The humanized antibodies hz31C81-1.1 (the amino acid sequence of the heavy chain set forth in SEQ ID NO: 75 and the amino acid sequence of the light chain set forth in SEQ ID NO: 81) and hz31C8-1.2 (the amino acid sequence of the heavy chain set forth in SEQ ID NO: 77 and the amino acid sequence of the light chain set forth in SEQ ID NO: 81) were subjected to affinity, binding, blocking and cell function analyses using the methods described in Example 4, Example 5, Example 6, Example 7, Example 8, Example 9 and Example 10.
"IC50, blocking of the IL33/ST2-induced IL5 secretion on CD4+ T cells (hIL33 plus IL2 co-stimulation) [1]","IC50, blocking of the IL33/ST2-induced IL5 secretion on CD4+ T cells (hIL33 plus IL2 co-stimulation) [2]",EC50 [3],EC50 [4],Binder
0.09 nM,0.44 nM,0.405 nM,0.069 nM,"Chimeric 31C8 (antibody, human IgG2, kappa, V domains shown, also called xi31C8) VH: QVQLQQSGPELVRPGASVTLSCKASGYIFIDSEMHWVKQTPVHGLEWIGAIDPETGDTVYNQKFKGKATLTADKSSSTASMELSSLTSEDSAVYYCTGSTTDYYFAYWGQGTTLTVSS VL: DIVMTQAAFSNPVTLGTSASISCRSSKSLLHSNGIIYLYWYLQKPGQSPQLLIYQMSNLASGVPDRFSSSGSGTDFTLRISRVEAEDVGVYYCAQNLELPFTFGSGTKLEIKR"
0.12 nM,–,–,–,"Chimeric 7D1 (antibody, human IgG2, kappa, V domains shown, also called xi7D1) VH: QVQLQQSGAELVRPGASVTLSCKASGYTFTDYEMHWVKQTPVHGLDWIGTIDPETGDTAYNQKFKGRATLTADKSSSTAYMELSSLTSEDSAVYYCTRYSYTNSPYGMDYWGQGTSVTVSS VL: DVVMTQTPKFLLVSAGDRVTITCKASQSVSNDVAWYQQKPGQSPKLLIYYASNRYTGVPDRFTGSGYGTDFTFTINTVQAEDLAVYFCQQDYSSPYTFGGGTKLEIKR"
0.08 nM,–,–,–,"Chimeric 17E2 (antibody, human IgG2, kappa, V domains shown, also called xi17E2) VH: QVQLQQSGAELVRPGASVTLSCKASGYTFTDYEMHWVKQTPVLGLEWIGAIDPETGDTAYNQKFKGKATLTADKSSSTAYMELSSLASEDSAVYYCIRVDSNYDYFDYWGQDTTLTVSS VL: DIVLTQSPPILSASPGEKVTMTCRASSSVSYMHWYQQKPGSSPKPWIYDTSNLASGVPARFSGSGSGTSYSLTISRVEAEDAATYYCQQWSSNPLTFGAGTKLELKR"
–,0.462 nM,0.384 nM,0.0716 nM,"Humanized 31C8-1.1 (antibody, human IgG2, kappa, V domains shown, also called hz31C8-1.1; hz31C81-1.1) VH: EVQLVQSGAEVKKPGATVKISCKASGYIFIDSEMHWVQQAPGKGLEWMGAIDPETGDTVYAEKFQGRVTITADKSSSTAYMELSSLRSEDTAVYYCTGSTTDYYFAYWGQGTLVTVSS VL: DIQMTQSPSSLSASVGDRVTITCRSSKSLLHSNGIIYLYWYQQKPGKAPKLLIYQLSNLASGVPSRFSSSGSGTDFTLTISSLQPEDFATYYCAQNLELPFTFGQGTKVEIKR"
–,0.366 nM,0.468 nM,0.0746 nM,"Humanized 31C8-1.2 (antibody, human IgG2, kappa, V domains shown, also called hz31C8-1.2; hz31C81-1.2) VH: QVQLVQSGAKVKKPGATVKISCKASGYIFIDSEMHWVQQAPGKGLEWMGAIDPETGDTVYAKKFKGRVTITADKSSSTAYMELSSLRSEDTAVYYCTGSTTDYYFAYWGQGTLVTVSS VL: DIQMTQSPSSLSASVGDRVTITCRSSKSLLHSNGIIYLYWYQQKPGKAPKLLIYQLSNLASGVPSRFSSSGSGTDFTLTISSLQPEDFATYYCAQNLELPFTFGQGTKVEIKR"
–,0.794 nM,0.676 nM,0.242 nM,"GSK3772847 (antibody STLM208 in CN104411333, prepared in-house) (antibody, human IgG2, kappa, V domains shown, Control anti-ST2 antibody) VH: EVQLLESGGGLVQPGGSLRLSCAASGFTFSIYDMIWVRQAPGKGLEWVSSIRGEGGGTYYADSVKGRFTISRDNSKNTLYLQMNSLRAEDTAVYYCARDPWSTEGSFFVLDYWGQGTLVTVSS VL: EIVLTQSPATLSLSPGERATLSCRASQSVDDDLAWYQQKPGQAPRLLIYDASNRATGIPARFSGSGSGTDFTLTISSLEPEDFAVYYCQQYITAPLTFGQGTKVEIKR"
0.32 nM,1.82 nM,0.581 nM,0.178 nM,"RG6149 (antibody Ab2 in CN104334582, prepared in-house) (antibody, human IgG2, kappa, V domains shown, Control anti-ST2 antibody) VH: EVQLVQSGAEVKKPGESLKISCKGSGYSFTNYWIGWVRQMPGKGLEWMGIIYPGNSDTRFSPSFQGQVTISADKSITTAYLQWSSLKASDTAMYYCARHGTSSDYYGLDVWGQGTTVTVSS VL: not shown"
